Consider two molecules from patent publication US20070060497A1, “Reagents for modifying biopharmaceuticals, the use and production thereof” (priority 2003, published 2007).

In one data set the target is T1, L-asparaginase (Escherichia coli, UniProt P00805).
T1 construct: purchased ProThera
In words: L-asparaginase enzyme activity (ammonium released, quantified with Nessler reagent). The class given is biochemical. From the text: (§1) Determining the enzyme activities: L-asparaginase catalyzes the deamidation of L-asparagine to form L-aspartic acid. In order to determine the enzyme activity, ammonium which was being released in this reaction was quantified using Neβler reagent. Streptokinase activates plasminogen. Plasminogen which has been activated in this way catalyzes the hydrolysis of the tripeptide derivative D-Val-Leu-Lys-para-nitroanilide (S-2251). In order to indirectly determine the activity of streptokinase, the quantity of nitroaniline which was released was quantified photometrically at 405 nm. The para-nitroanilide derivative α-benzoylarginine-para-nitroanilide was used to determine the peptidolytic activity of trypsin, by photometrically quantifying the nitroaniline which was released at 405 nm.
Substance 16 (0.5 eq./0.7 μl, 1 eq./1.4 μl, 2 eq./2.7 μl, 5 eq./6.8 μl, 10 eq./13.7 μl and, respectively, 20 eq./27.3 μl) dissolved in dimethyl sulfoxide (10 mg/ml) was added to 75 μl of a solution of L-asparaginase (0.5 mg/ml) in sodium carbonate buffer (pH 8.5 to 9.5) and the mixture was made up to a total volume of 150 μl using sodium carbonate buffer (pH 8.5 to 9.5). The reaction mixture was incubated at 25° C. and 300 rpm for 1 h on a thermomixer. Excess substance 16 was then removed by means of filtration in centrifuge filtration units (10 kDa cut-off) using water as rinsing liquid.

A further data set relates to trypsin. As to the kind of experiment: Peptidolytic activity of trypsin (α-benzoylarginine-para-nitroanilide, 405 nm). In kind it is biochemical.
Excerpt: as §1
Substance 16 (0.5 eq./1.5 μl, 1 eq./2.7 μl, 2 eq./5.4 μl, 5 eq./13.8 μl and, respectively, 10 eq./27.3 μl) dissolved in dimethyl sulfoxide (10 mg/ml) was added to 120 μl of a solution of trypsin (1.0 mg/ml) in sodium carbonate buffer (pH 8.5 to 9.5) and the mixture was made up to a total volume of 150 μl using sodium carbonate buffer (pH 8.5 to 9.5). The reaction mixture was incubated at 25° C. and 300 rpm for 1 h on a thermomixer. Excess substance 16 was then removed by means of filtration in centrifuge filtration units (10 kDa cut-off) using water as rinsing liquid.

B1: conjugate composed of L-asparaginase and substance 16: conjugate composed of the compound according to the invention substance 16 and L-asparaginase (conjugate, UniProt P00805 23-348, looked up)
L-asparaginase 2: LPNITILATGGTIAGGGDSATKSNYTVGKVGVENLVNAVPQLKDIANVKGEQVVNIGSQDMNDNVWLTLAKKINTDCDKTDGFVITHGTDTMEETAYFLDLTVKCDKPVVMVGAMRPSTSMSADGPFNLYNAVVTAADKASANRGVLVVMNDTVLDGRDVTKTNTTDVATFKSVNYGPLGYIHNGKIDYQRTPARKHTSDTPFDVSKLNELPKVGIVYNYANASDLPAKALVDAGYDGIVSAGVGNGNLYKSVFDTLATAAKTGTAVVRSSRVPTGATTQDAEVDDAKYGFVASGTLNPQKARVLLQLALTQTKDPQQIQQIFNQY
modifications: conjugated to substance 16
notes: conjugate composed of the compound according to the invention substance 16 and L-asparaginase
Turning to B1, the Residual activity with L-asparaginase (0.5 eqs. of 16 employed) is 100%; with L-asparaginase (1 eq. of 16 employed), 100%; with L-asparaginase (2 eqs. of 16 employed), 92%; with L-asparaginase (5 eqs. of 16 employed), 87%; in the data set with L-asparaginase (10 eqs. of 16 employed, degree of modification 41%), 75%; with L-asparaginase (20 eqs. of 16 employed, degree of modification 43%), 60%.

B2: conjugate composed of trypsin and substance 16: conjugate composed of the compound according to the invention substance 16 and trypsin (conjugate, UniProt P00760 24-246, looked up)
Serine protease 1: IVGGYTCGANTVPYQVSLNSGYHFCGGSLINSQWVVSAAHCYKSGIQVRLGEDNINVVEGNEQFISASKSIVHPSYNSNTLNNDIMLIKLKSAASLNSRVASISLPTSCASAGTQCLISGWGNTKSSGTSYPDVLKCLKAPILSDSSCKSAYPGQITSNMFCAGYLEGGKDSCQGDSGGPVVCSGKLQGIVSWGSGCAQKNKPGVYTKVCNYVSWIKQTIASN
modifications: conjugated to substance 16
notes: conjugate composed of the compound according to the invention substance 16 and trypsin
As for B2, the Residual activity came to 104% in the data set with trypsin (0.5 eqs. of 16 employed); 109% in the data set on trypsin (1 eq. of 16 employed); 119% in the data set with trypsin (2 eqs. of 16 employed); 136% in the data set with trypsin (5 eqs. of 16 employed); 137% with trypsin (10 eqs. of 16 employed, degree of modification 44%).
